These results are taken from patent publication US20230382970A1 (HANMI PHARM, published 2023).

T1: human GIP receptor (human, UniProt P48546 22-466)
T1 sequence (looked up): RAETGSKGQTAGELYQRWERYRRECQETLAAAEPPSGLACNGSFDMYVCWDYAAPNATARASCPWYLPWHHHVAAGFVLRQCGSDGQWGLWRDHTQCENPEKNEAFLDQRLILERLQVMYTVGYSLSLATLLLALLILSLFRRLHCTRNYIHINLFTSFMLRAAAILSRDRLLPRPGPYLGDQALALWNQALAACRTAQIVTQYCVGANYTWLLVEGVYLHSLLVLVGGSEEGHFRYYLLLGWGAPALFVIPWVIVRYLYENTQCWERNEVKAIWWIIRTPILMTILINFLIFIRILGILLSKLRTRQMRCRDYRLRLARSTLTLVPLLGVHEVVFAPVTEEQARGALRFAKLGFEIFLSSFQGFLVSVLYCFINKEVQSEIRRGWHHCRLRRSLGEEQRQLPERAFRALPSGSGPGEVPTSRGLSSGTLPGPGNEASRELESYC

Bridge positions count the residues as written; N and C are the ends. Square brackets hold non-standard residues; d marks the D form. Ends that are not written are not given here. Aib = CC(C)(N)C(=O)O

For one experiment, the target named is human GLP-1 receptor (human, UniProt P43220 24-463). The experiment in a line: cell-based or functional assay.
Regarding Y[Aib]EGTFTSDYSEYMEKEAVREFISWLVRGGPSSGAPPPSK (bridge 12-16) [GLP-1/GIP dual agonist of SEQ ID NO: 13], the “In vitro activity (%) compared to native-type peptide, vs human GLP-1 (cAMP EC50, human GLP-1 receptor-expressing CHO cells)” value turned out to be 116%.
With Y[Aib]EGTFTSDYSKYLDEEAVKLFVQWLLDQHPSSGAPPPSC (bridge 16-20) [GLP-1/GIP dual agonist of SEQ ID NO: 25], the “In vitro activity (%) compared to native-type peptide, vs human GLP-1 (cAMP EC50, human GLP-1 receptor-expressing CHO cells)” value was 3.2%.
On the same count and under the same terms, the same measure for Y[Aib]EGTFTSDYSKYLDEKAAKDFVQWLLDHHPSSGQPPPSC (bridge 16-20) [GLP-1/GIP dual agonist of SEQ ID NO: 5]: 20.2%; for Y[Aib]EGTFTSDYSIQLDKIAQKAFVQWLIAGGPSSGAPPPSC [GLP-1/GIP dual agonist of SEQ ID NO: 17]: 19.8%.
For the molecule Y[Aib]EGTFTSDYSKYLDEKAAKEFVQWLLDQHPSSGQPPPSC (bridge 16-20) [GLP-1/GIP dual agonist of SEQ ID NO: 22], the “In vitro activity (%) compared to native-type peptide, vs human GLP-1 (cAMP EC50, human GLP-1 receptor-expressing CHO cells)” value turned out to be 41.1%.
On to Y[Aib]EGTFTSDYSKYLDERAQKDFVQWLLDHHPSSGQPPPSC (bridge 16-20; also: ring type not given here) [GLP-1/GIP dual agonist of SEQ ID NO: 7], for which the “In vitro activity (%) compared to native-type peptide, vs human GLP-1 (cAMP EC50, human GLP-1 receptor-expressing CHO cells)” value is 18.3%.
Still for that read-out and setting: the same measure for Y[Aib]EGTFTSDYSRYLDERASKDFVQWLLDHHPSSGQPPPSK (bridge 16-20) [GLP-1/GIP dual agonist of SEQ ID NO: 11]: 95%; for H[Aib]EGTFTSDYSKYLDKKRQ[Aib]EFVQWLLNGGPSSGAPPPSC [GLP-1/GIP dual agonist of SEQ ID NO: 14]: 160%; for Y[Aib]EGTFTSDYSI[Aib]LDKIAQRAFVQWLIAGGPSSGAPPPSK [GLP-1/GIP dual agonist of SEQ ID NO: 16]: 60%.
The same measure, in the same setting: the same measure for Y[Aib]EGTFTSDYSEYMEKEAVREFIAWLVRGGPSSGAPPPSK (bridge 12-16) [GLP-1/GIP dual agonist of SEQ ID NO: 12]: 110%.
Consider Y[Aib]EGTFTSDYSRYLDERAQKDFVQWLLDHHPSSGQPPPSK (bridge 16-20) [GLP-1/GIP dual agonist of SEQ ID NO: 10], for which the “In vitro activity (%) compared to native-type peptide, vs human GLP-1 (cAMP EC50, human GLP-1 receptor-expressing CHO cells)” value is 108%.
Consider Y[Aib]EGTFTSDYSKYLDERASKDFVQWLLDHHPSSGQPPPSC (bridge 16-20; also: ring type not given here) [GLP-1/GIP dual agonist of SEQ ID NO: 8], for which the “In vitro activity (%) compared to native-type peptide, vs human GLP-1 (cAMP EC50, human GLP-1 receptor-expressing CHO cells)” value was found to be 35.9%.
For Y[Aib]EGTFTSDYSIYLDERACKDFVQWLLDHHPSSGQPPPSYK (bridge 16-20) [GLP-1/GIP dual agonist of SEQ ID NO: 15], the “In vitro activity (%) compared to native-type peptide, vs human GLP-1 (cAMP EC50, human GLP-1 receptor-expressing CHO cells)” value was determined as 97.5%.
Y[Aib]EGTFTSDYSKYLDEIRAKDFVQWLLDHHPSSGQPPPSC (bridge 16-20) [GLP-1/GIP dual agonist of SEQ ID NO: 2]: the “In vitro activity (%) compared to native-type peptide, vs human GLP-1 (cAMP EC50, human GLP-1 receptor-expressing CHO cells)” value is 3.3%.
Take Y[Aib]EGTFTSDYSEYMEKEAVREFIAWLVKGGPSSGAPPPSC (bridge 12-16) [GLP-1/GIP dual agonist of SEQ ID NO: 1]: the “In vitro activity (%) compared to native-type peptide, vs human GLP-1 (cAMP EC50, human GLP-1 receptor-expressing CHO cells)” value is 53.9%.
The same measure, in the same setting: the same measure for Y[Aib]EGTFTSDYSKYLDEQAAKEFVQWLLDQHPSSGAPPPSC (bridge 16-20) [GLP-1/GIP dual agonist of SEQ ID NO: 23]: 13.5%; for Y[Aib]EGTFTSDYSI[Aib]LDKQAA[Aib]AFVQWLIAGGPSSGAPPPSC [GLP-1/GIP dual agonist of SEQ ID NO: 20]: 31.5%; for Y[Aib]EGTFTSDYSIYLDKQAA[Aib]AFVQWLIAGGPSSGAPPPSC [GLP-1/GIP dual agonist of SEQ ID NO: 19]: 32.8%.
Consider Y[Aib]EGTFTSDYSKYLDEIAQKDFVQWLLDQHPSSGAPPPSC (bridge 16-20) [GLP-1/GIP dual agonist of SEQ ID NO: 24], for which the “In vitro activity (%) compared to native-type peptide, vs human GLP-1 (cAMP EC50, human GLP-1 receptor-expressing CHO cells)” value amounted to 7.3%.
The same measure, in the same setting: under Y[Aib]EGTFTSDYSIQLDKIAQRAFVQWLIAGGPSSGAPPPSK [GLP-1/GIP dual agonist of SEQ ID NO: 18] stands 43.3%.
Take Y[Aib]EGTFTSDYSRYLDERAAKDFVQWLLDHHPSSGQPPPSK (bridge 16-20) [GLP-1/GIP dual agonist of SEQ ID NO: 9]: the “In vitro activity (%) compared to native-type peptide, vs human GLP-1 (cAMP EC50, human GLP-1 receptor-expressing CHO cells)” value came to 141%.
For the molecule Y[Aib]EGTFTSDYSI[Aib]LDKIAAKAFVQWLIAGGPSSGAPPPSC [GLP-1/GIP dual agonist of SEQ ID NO: 21], the “In vitro activity (%) compared to native-type peptide, vs human GLP-1 (cAMP EC50, human GLP-1 receptor-expressing CHO cells)” value was 19.7%.

Another experiment deals with T1, human GIP receptor. The experiment in a line: cell-based or functional assay.
On to Y[Aib]EGTFTSDYSKYLDEEAVKLFVQWLLDQHPSSGAPPPSC (bridge 16-20) [GLP-1/GIP dual agonist of SEQ ID NO: 25], for which the “In vitro activity (%) compared to native-type peptide, vs human GIP (cAMP EC50, human GIP receptor-expressing CHO cells)” value was 59.4%.
Regarding Y[Aib]EGTFTSDYSKYLDEKAAKDFVQWLLDHHPSSGQPPPSC (bridge 16-20) [GLP-1/GIP dual agonist of SEQ ID NO: 5], the “In vitro activity (%) compared to native-type peptide, vs human GIP (cAMP EC50, human GIP receptor-expressing CHO cells)” value is 48.2%.
In the case of Y[Aib]EGTFTSDYSIQLDKIAQKAFVQWLIAGGPSSGAPPPSC [GLP-1/GIP dual agonist of SEQ ID NO: 17], the “In vitro activity (%) compared to native-type peptide, vs human GIP (cAMP EC50, human GIP receptor-expressing CHO cells)” value was determined as 7.7%.
As for Y[Aib]EGTFTSDYSKYLDEKAAKEFVQWLLDQHPSSGQPPPSC (bridge 16-20) [GLP-1/GIP dual agonist of SEQ ID NO: 22], the “In vitro activity (%) compared to native-type peptide, vs human GIP (cAMP EC50, human GIP receptor-expressing CHO cells)” value worked out at 39.6%.
Still for that read-out and setting: the same measure for Y[Aib]EGTFTSDYSKYLDERAQKDFVQWLLDHHPSSGQPPPSC (bridge 16-20; also: ring type not given here) [GLP-1/GIP dual agonist of SEQ ID NO: 7]: 62.3%.
H[Aib]EGTFTSDYSKYLDKKRQ[Aib]EFVQWLLNGGPSSGAPPPSC [GLP-1/GIP dual agonist of SEQ ID NO: 14]: the “In vitro activity (%) compared to native-type peptide, vs human GIP (cAMP EC50, human GIP receptor-expressing CHO cells)” value turned out to be 0.3%.
Y[Aib]EGTFTSDYSI[Aib]LDKIAQRAFVQWLIAGGPSSGAPPPSK [GLP-1/GIP dual agonist of SEQ ID NO: 16]: the “In vitro activity (%) compared to native-type peptide, vs human GIP (cAMP EC50, human GIP receptor-expressing CHO cells)” value is 72.3%.
For Y[Aib]EGTFTSDYSKYLDERASKDFVQWLLDHHPSSGQPPPSC (bridge 16-20; also: ring type not given here) [GLP-1/GIP dual agonist of SEQ ID NO: 8], the “In vitro activity (%) compared to native-type peptide, vs human GIP (cAMP EC50, human GIP receptor-expressing CHO cells)” value amounted to 29.2%.
For the molecule Y[Aib]EGTFTSDYSIYLDERACKDFVQWLLDHHPSSGQPPPSYK (bridge 16-20) [GLP-1/GIP dual agonist of SEQ ID NO: 15], the “In vitro activity (%) compared to native-type peptide, vs human GIP (cAMP EC50, human GIP receptor-expressing CHO cells)” value came out at 64.4%.
Consider Y[Aib]EGTFTSDYSKYLDEIRAKDFVQWLLDHHPSSGQPPPSC (bridge 16-20) [GLP-1/GIP dual agonist of SEQ ID NO: 2], for which the “In vitro activity (%) compared to native-type peptide, vs human GIP (cAMP EC50, human GIP receptor-expressing CHO cells)” value was determined as 28.8%.
In the case of Y[Aib]EGTFTSDYSEYMEKEAVREFIAWLVKGGPSSGAPPPSC (bridge 12-16) [GLP-1/GIP dual agonist of SEQ ID NO: 1], the “In vitro activity (%) compared to native-type peptide, vs human GIP (cAMP EC50, human GIP receptor-expressing CHO cells)” value was found to be 27.5%.
Consider Y[Aib]EGTFTSDYSKYLDEQAAKEFVQWLLDQHPSSGAPPPSC (bridge 16-20) [GLP-1/GIP dual agonist of SEQ ID NO: 23], for which the “In vitro activity (%) compared to native-type peptide, vs human GIP (cAMP EC50, human GIP receptor-expressing CHO cells)” value was 106%.
Regarding Y[Aib]EGTFTSDYSI[Aib]LDKQAA[Aib]AFVQWLIAGGPSSGAPPPSC [GLP-1/GIP dual agonist of SEQ ID NO: 20], the “In vitro activity (%) compared to native-type peptide, vs human GIP (cAMP EC50, human GIP receptor-expressing CHO cells)” value turned out to be 64.2%.
Same read-out and setting: the same measure for Y[Aib]EGTFTSDYSIYLDKQAA[Aib]AFVQWLIAGGPSSGAPPPSC [GLP-1/GIP dual agonist of SEQ ID NO: 19]: 13.9%; for Y[Aib]EGTFTSDYSKYLDEIAQKDFVQWLLDQHPSSGAPPPSC (bridge 16-20) [GLP-1/GIP dual agonist of SEQ ID NO: 24]: 83.9%.
As for Y[Aib]EGTFTSDYSIQLDKIAQRAFVQWLIAGGPSSGAPPPSK [GLP-1/GIP dual agonist of SEQ ID NO: 18], the “In vitro activity (%) compared to native-type peptide, vs human GIP (cAMP EC50, human GIP receptor-expressing CHO cells)” value amounted to 15.9%.
Regarding Y[Aib]EGTFTSDYSI[Aib]LDKIAAKAFVQWLIAGGPSSGAPPPSC [GLP-1/GIP dual agonist of SEQ ID NO: 21], the “In vitro activity (%) compared to native-type peptide, vs human GIP (cAMP EC50, human GIP receptor-expressing CHO cells)” value came out at 23.2%.
